Reference: article PMC4772809, “Network of protein interactions within the Drosophila inner kinetochore” (Open Biology, 2016)
Blank lines part the entries; values can stand above or below the molecule they belong to.

B2: 6xHis::Nnf1a–Mis12 heterodimer (complex, Drosophila melanogaster)
chain 1: MEDSEAAFKRHEGVGPKVKQAYEEAIKQIFADLSCADLQAWDAIYQEHEQSALDTESIVDRTRSLMTKVVLEMNRCFFASNDVPNKLQTLEMLKEHFAAYEGKKWNVNTAAPDKLTRPLRMRFLDFSVEFMEQQLASQAKELEIAMAKSNANRERLQHVHDKRLKLTVQMEQQLSQYEKVKTELIKLGEALNDF
chain 2: MDFNSLAYDQKFFNFTAAQLSAEREHIVQDIIKKGIGQIIDKIKTPATAELLEAEKETVERRFQASASKGLKALRELDSKVFHVPPHVLHPEHMFVENQYTSEEEEQKTARLEELKAKYRENMAMLAHLKIEEEKYAAMEDLIQKEIEMQDRVQRSCSSLNITKLKQFWNQVPLQIKKETD
notes: Nnf1a, as m1; Mis12, as m2; 1 : 1 by SEC-MALS; also called MN dimer; MN; source: E. coli BL21(DE3), co-expressed from Duet vectors; in lysate for Ni-NTA co-purification, then purified (Ni-NTA, SEC); copies: 1 + 1

How the values were obtained:
[1] = biological target: Mis12–Nnf1a–CENP-C^1–94 complex (Drosophila melanogaster) (UniProt Q9VHP9); experiment: SEC-MALS; complexes already collected from SEC, stored at 4 °C in SEC buffer and re-loaded; two elution peaks, masses by MALS
6xHis::CENP-C^1–94 = biological target: T1, 6xHis::CENP-C^1–94 (Drosophila melanogaster, UniProt Q9VHP9 1-94); experiment: SEC-MALS; co-expressed, co-purified complexes on Superdex 200 10/300 at 4 °C, 150 mM NaCl, 10 mM Tris/HCl pH 8.0, in-line MALS and refractometer; conditions: both partners purified
T1 construct: also called His-tagged CENP-C 1-94; source: E. coli BL21(DE3)
T1 sequence (looked up): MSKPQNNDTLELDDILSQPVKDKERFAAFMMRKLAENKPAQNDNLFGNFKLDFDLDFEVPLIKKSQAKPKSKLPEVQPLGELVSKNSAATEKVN

6xHis::Nsl1 = biological target: T2, 6xHis::Nsl1 (Drosophila melanogaster, UniProt Q9VYX4 1-183); experiment: as above; conditions: both partners purified
T2 construct: residues up to 183 are printed; not the NSL-complex protein of the same name; source: E. coli BL21(DE3), co-expressed from Duet vectors (induced overnight); in lysate for Ni-NTA co-purification, then purified (Ni-NTA, SEC)
T2 sequence (looked up): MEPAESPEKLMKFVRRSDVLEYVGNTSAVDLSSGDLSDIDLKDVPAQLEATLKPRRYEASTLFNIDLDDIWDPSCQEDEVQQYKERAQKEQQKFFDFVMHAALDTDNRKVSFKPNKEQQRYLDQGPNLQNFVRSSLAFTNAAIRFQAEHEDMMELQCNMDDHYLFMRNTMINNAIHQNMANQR

[2] = biological target: the molecule itself; experiment: SEC-MALS; complexes already collected from SEC, stored at 4 °C in SEC buffer and re-loaded; two elution peaks, masses by MALS
6xHis::Nnf1a = biological target: T3, 6xHis::Nnf1a (Drosophila melanogaster, UniProt Q7JZC9 1-194); experiment: SEC-MALS; co-expressed, co-purified complexes on Superdex 200 10/300 at 4 °C, 150 mM NaCl, 10 mM Tris/HCl pH 8.0, in-line MALS and refractometer; conditions: both partners purified
T3 construct: written 6xHis::Nnf1a; also called polyhistidine (His)-tagged Nnf1a; source: E. coli BL21(DE3), co-expressed from Duet vectors; in lysate for Ni-NTA co-purification, then purified (Ni-NTA, SEC)
T3 sequence (looked up): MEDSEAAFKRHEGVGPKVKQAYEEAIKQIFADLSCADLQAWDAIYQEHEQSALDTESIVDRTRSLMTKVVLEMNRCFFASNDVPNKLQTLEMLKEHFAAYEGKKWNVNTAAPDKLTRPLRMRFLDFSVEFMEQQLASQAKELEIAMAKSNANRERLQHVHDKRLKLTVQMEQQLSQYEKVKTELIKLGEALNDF

Nnf1a^122–147 peptide = biological target: T4, Nnf1a^122–147 peptide (Drosophila melanogaster, N-terminus acetylated; C-terminus amidated); experiment: circular dichroism; synthetic peptides alone and in equimolar mixture, 0.1 M PBS pH 7.4, 195–270 nm, room temperature; conditions: both partners purified
T4 construct: also called Peptide Nnf1; Nnf1a R122-A147; source: synthetic peptide, bought: GenScript
T4 peptide: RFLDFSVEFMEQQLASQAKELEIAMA

[3] = biological target: B2; experiment: SEC-MALS; co-expressed, co-purified complexes on Superdex 200 10/300 at 4 °C, 150 mM NaCl, 10 mM Tris/HCl pH 8.0, in-line MALS and refractometer; conditions: both partners purified

stoichiometry N [1]: 2
Molecule: Mis12–Nnf1a–CENP-C^1–94 complex (from UniProt Q9VHP9 1-94)

stoichiometry N (6xHis::CENP-C^1–94): 1
stoichiometry N (6xHis::Nsl1): 1
B1: Nnf1a + Mis12 (both untagged) (complex, Drosophila melanogaster)
chain 1: MEDSEAAFKRHEGVGPKVKQAYEEAIKQIFADLSCADLQAWDAIYQEHEQSALDTESIVDRTRSLMTKVVLEMNRCFFASNDVPNKLQTLEMLKEHFAAYEGKKWNVNTAAPDKLTRPLRMRFLDFSVEFMEQQLASQAKELEIAMAKSNANRERLQHVHDKRLKLTVQMEQQLSQYEKVKTELIKLGEALNDF
chain 2: MDFNSLAYDQKFFNFTAAQLSAEREHIVQDIIKKGIGQIIDKIKTPATAELLEAEKETVERRFQASASKGLKALRELDSKVFHVPPHVLHPEHMFVENQYTSEEEEQKTARLEELKAKYRENMAMLAHLKIEEEKYAAMEDLIQKEIEMQDRVQRSCSSLNITKLKQFWNQVPLQIKKETD
notes: Nnf1a, as m6; Mis12, as m2; co-purified through a His tag on the third co-expressed protein; also called Mis12–Nnf1a dimer; MN dimer; source: E. coli BL21(DE3), co-expressed from Duet vectors; in lysate for Ni-NTA co-purification, then purified (Ni-NTA, SEC); copies: 1 + 1

Molecule: B2
stoichiometry N [2]: 2

stoichiometry N (6xHis::Nnf1a): 1
B3: Mis12 (untagged, recombinant) (natural protein, Drosophila melanogaster, UniProt Q9VS01 1-181, looked up)
chain: MDFNSLAYDQKFFNFTAAQLSAEREHIVQDIIKKGIGQIIDKIKTPATAELLEAEKETVERRFQASASKGLKALRELDSKVFHVPPHVLHPEHMFVENQYTSEEEEQKTARLEELKAKYRENMAMLAHLKIEEEKYAAMEDLIQKEIEMQDRVQRSCSSLNITKLKQFWNQVPLQIKKETD
notes: source: E. coli BL21(DE3), co-expressed from Duet vectors; in lysate for Ni-NTA co-purification, then purified (Ni-NTA, SEC)

binding result (Nnf1a^122–147 peptide): binds
B4: Mis12^101–130 peptide (peptide)
peptide: Ac-TSEEEEQKTARLEELKAKYRENMAMLAHLK-NH2
notes: also called Mis12 peptide; Mis12 T101-K130; source: synthetic peptide, bought: GenScript

stoichiometry N [3]: 1
B5: CENP-C^1–94 (untagged, recombinant) (domain or fragment, Drosophila melanogaster, UniProt Q9VHP9 1-94, looked up)
chain: MSKPQNNDTLELDDILSQPVKDKERFAAFMMRKLAENKPAQNDNLFGNFKLDFDLDFEVPLIKKSQAKPKSKLPEVQPLGELVSKNSAATEKVN
notes: also called amino-terminal part of CENP-C (residues 1–94); source: E. coli BL21(DE3), co-expressed from Duet vectors; in lysate for Ni-NTA co-purification, then purified (Ni-NTA, SEC)
